Measurements: PMC10035508

Molecular target: PTBP1 (hsPTBP1) (Homo sapiens) (UniProt P26599)
Assay: EMSA
Details: EMSA in RBB: 10 mM sodium cacodylate pH 7.0, 100 mM NaCl, 1 mM MgCl2, 1 mM DTT, 0.1 ug/uL BSA, 0.1 ug/uL yeast tRNA, 0.4 U/uL RNasin, 1 U/uL heparin …

Sequence of PTBP1 (hsPTBP1) (Homo sapiens) (P26599 whole entry): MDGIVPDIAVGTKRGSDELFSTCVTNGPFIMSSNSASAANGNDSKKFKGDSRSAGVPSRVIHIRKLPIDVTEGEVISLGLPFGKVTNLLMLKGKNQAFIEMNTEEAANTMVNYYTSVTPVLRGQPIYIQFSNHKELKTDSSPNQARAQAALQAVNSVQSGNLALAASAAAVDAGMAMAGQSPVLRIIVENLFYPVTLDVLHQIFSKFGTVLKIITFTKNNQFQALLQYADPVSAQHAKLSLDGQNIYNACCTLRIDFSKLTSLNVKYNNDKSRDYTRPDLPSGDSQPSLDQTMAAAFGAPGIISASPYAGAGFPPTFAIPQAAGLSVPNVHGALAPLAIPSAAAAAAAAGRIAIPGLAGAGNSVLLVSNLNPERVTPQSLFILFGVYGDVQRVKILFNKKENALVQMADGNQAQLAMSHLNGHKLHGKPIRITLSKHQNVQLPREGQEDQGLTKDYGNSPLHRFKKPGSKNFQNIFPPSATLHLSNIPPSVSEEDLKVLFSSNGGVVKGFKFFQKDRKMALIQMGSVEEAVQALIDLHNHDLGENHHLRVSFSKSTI

| Sequence | binding |
| --- | --- |
| GGGGUUCCUCCCCUCCAUCUUCCCACACCCAGUCACCAGCACUGUAUUUUCUGUCACCAAGACAAUGAUUUCUUGUUAUUGAGGCUGUUGCUUUUGUGGAUGUG [CPA1] | no binding |
| GGGUCUCCUUUCAGCCUGCUUCAGGAAUGAGCUUGUGGAGCCCCGGAGAGAAACUCCAAAACAAUCUGACGUCUUCUUUAGACAUUCCAAGCCCCCAAACCGAUCAGUGUAC [FRAGT7] | no binding |
